In article doi:10.1101/2023.03.13.532366 (bioRxiv, 2023):
One block for each binder: values may come before it.

B1: mIL-12B (p40), subunit of mIL-12 in the cryo-EM complexes (mIL-12b-Casp3-AviTag-His6, tags cleaved) (natural protein, mouse, UniProt P43432 23-335, looked up)
chain: MWELEKDVYVVEVDWTPDAPGETVNLTCDTPEEDDITWTSDQRHGVIGSGKTLTITVKEFLDAGQYTCHKGGETLSHSHLLLHKKENGIWSTEILKNFKNKTFLKCEAPNYSGRFTCSWLVQRNMDLKFNIKSSSSSPDSRAVTCGMASLSAEKVTLDQRDYEKYSVSCQEDVTCPTAEETLPIELALEARQQNKYENYSTSFFIRDIIKPDPPKNLQMKPLKNSQVEVSWEYPDSWSTPHSYFSLKFFVRIQRKKEKMKETEEGCNQKGAFLVEKTSTEVQCKGGNVCVQAQDRYYNSSCSKWACVPCRVRS
B3: mIL-12Rβ1_(D1-D5)-Strep-II Tag (non pre-dimerized) (receptor, mouse, UniProt Q60837 20-565, looked up)
chain: QLGASGPGDGCCVEKTSFPEGASGSPLGPRNLSCYRVSKTDYECSWQYDGPEDNVSHVLWCCFVPPNHTHTGQERCRYFSSGPDRTVQFWEQDGIPVLSKVNFWVESRLGNRTMKSQKISQYLYNWTKTTPPLGHIKVSQSHRQLRMDWNVSEEAGAEVQFRRRMPTTNWTLGDCGPQVNSGSGVLGDIRGSMSESCLCPSENMAQEIQIRRRRRLSSGAPGGPWSDWSMPVCVPPEVLPQAKIKFLVEPLNQGGRRRLTMQGQSPQLAVPEGCRGRPGAQVKKHLVLVRMLSCRCQAQTSKTVPLGKKLNLSGATYDLNVLAKTRFGRSTIQKWHLPAQELTETRALNVSVGGNMTSMQWAAQAPGTTYCLEWQPWFQHRNHTHCTLIVPEEEDPAKMVTHSWSSKPTLEQEECYRITVFASKNPKNPMLWATVLSSYYFGGNASRAGTPRHVSVRNQTGDSVSVEWTASQLSTCPGVLTQYVVRCEAEDGAWESEWLVPPTKTQVTLDGLRSRVMYKVQVRADTARLPGAWSHPQRFSFEVQIS

Experiments:
[1] = biological target: B3; assay: cryo-EM structure
[2] = biological target: T1, mIL-12Rβ2_(D1-D6)-Strep-II Tag (non pre-dimerized) (mouse, UniProt P97378 24-637); assay: cryo-EM structure
T1 sequence (looked up): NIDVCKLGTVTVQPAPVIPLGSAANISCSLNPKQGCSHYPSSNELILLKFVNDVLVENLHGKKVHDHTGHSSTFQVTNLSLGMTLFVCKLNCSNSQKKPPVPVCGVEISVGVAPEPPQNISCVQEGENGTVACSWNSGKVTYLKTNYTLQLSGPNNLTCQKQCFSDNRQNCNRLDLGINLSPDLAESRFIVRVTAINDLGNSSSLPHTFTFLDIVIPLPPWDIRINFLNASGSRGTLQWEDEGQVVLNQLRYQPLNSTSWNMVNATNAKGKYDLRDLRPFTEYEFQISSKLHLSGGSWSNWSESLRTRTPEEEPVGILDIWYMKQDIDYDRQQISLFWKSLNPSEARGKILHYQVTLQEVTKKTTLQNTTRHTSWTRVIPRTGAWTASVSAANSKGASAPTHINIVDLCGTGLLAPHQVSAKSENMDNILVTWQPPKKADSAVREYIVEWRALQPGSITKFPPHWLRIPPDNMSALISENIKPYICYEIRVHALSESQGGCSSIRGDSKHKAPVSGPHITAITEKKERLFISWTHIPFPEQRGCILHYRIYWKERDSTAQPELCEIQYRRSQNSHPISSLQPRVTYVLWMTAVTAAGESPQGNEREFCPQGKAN

[3] = biological target: hIL-12Rβ1_(D3-D5) (domains 3 to 5 of human IL-12 receptor β1) (human, UniProt P42701); assay: crystal structure
[4] = biological target: T2, hIL-12B (p40), subunit of hIL-23 in the cryo-EM complex (human, UniProt P29460 23-328); assay: cryo-EM structure
T2 sequence (looked up): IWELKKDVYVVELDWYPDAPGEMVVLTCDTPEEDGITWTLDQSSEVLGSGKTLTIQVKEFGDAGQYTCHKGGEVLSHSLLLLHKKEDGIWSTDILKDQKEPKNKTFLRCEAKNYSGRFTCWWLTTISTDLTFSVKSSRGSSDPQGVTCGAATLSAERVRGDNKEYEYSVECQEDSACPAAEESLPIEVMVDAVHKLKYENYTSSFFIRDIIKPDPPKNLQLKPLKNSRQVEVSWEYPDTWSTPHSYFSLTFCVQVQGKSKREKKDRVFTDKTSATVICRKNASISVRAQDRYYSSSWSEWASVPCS

[5] = biological target: hIL-23R-CaM (complete extracellular segment of human IL-23 receptor fused to calmodulin) (human, UniProt Q5VWK5 24-355; P0DP23 5-149); assay: cryo-EM structure
[6] = biological target: T3, hIL-12B (p40) of the crystallised hIL-23 (hIL-23a:hIL-12b co-transfection) (human, UniProt P29460 23-328); assay: crystal structure
T3 sequence (looked up): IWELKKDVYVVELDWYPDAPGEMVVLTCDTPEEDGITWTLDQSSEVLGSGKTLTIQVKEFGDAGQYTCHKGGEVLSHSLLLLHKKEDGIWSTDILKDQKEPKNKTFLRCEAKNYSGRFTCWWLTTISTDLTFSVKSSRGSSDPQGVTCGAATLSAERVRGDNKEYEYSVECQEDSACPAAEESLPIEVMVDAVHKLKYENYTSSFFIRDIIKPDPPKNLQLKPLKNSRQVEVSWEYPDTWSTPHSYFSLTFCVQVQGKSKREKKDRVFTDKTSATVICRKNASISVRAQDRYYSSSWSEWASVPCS

[7] = biological target: B1; assay: cryo-EM structure
[8] = biological target: T4, mIL-12B (p40), untagged, of the crystallised mIL-12 (mouse, UniProt P43432 23-335); assay: crystal structure
T4 sequence (looked up): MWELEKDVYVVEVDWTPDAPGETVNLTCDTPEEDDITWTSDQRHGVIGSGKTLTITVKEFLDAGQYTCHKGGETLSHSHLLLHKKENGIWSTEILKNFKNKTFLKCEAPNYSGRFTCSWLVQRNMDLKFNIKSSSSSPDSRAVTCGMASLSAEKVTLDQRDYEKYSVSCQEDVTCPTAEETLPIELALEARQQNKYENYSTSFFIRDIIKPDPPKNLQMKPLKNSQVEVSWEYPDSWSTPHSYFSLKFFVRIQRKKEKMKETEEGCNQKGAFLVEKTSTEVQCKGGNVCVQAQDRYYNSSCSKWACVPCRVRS

Binder: B1
binding result [1]: binds

Binder: B3
binding result [2]: binds

B4: Fab4_(CrystalKappa) (Crystal Kappa form of Fab4) (Fab, V domains shown)
VH: QVQLVESGGGVVQPGRSLRLSCAASGFTFTSYGMSWVRQAPGKGLEWVAGISYDASDTEYADSVKGRFTISRDNSKNTLYLQMNSLRAEDTAVYYCARSPDYIIDYGFDYWGRGTLVTVSS
VL: AIQMTQSPSSLSASVGDRVTITCRASQGISSDLAWYQQKPGKAPKLLIYDASSLQSGVPSRFSGSGSGTDFTLTISSLQPEDFATYYCQQYWWYPFTFGQGTKVEIK
binding result [3]: binds

The remaining lines, values ahead:

binding result [2]: binds
binding result [1]: binds
B2: murine IL-12 (mIL-12), heterodimer of mIL-12A (p35) and mIL-12B (p40), as in the cryo-EM receptor complexes (complex, mouse)
chain 1: RVIPVSGPARCLSQSRNLLKTTDDMVKTAREKLKHYSCTAEDIDHEDITRDQTSTLKTCLPLELHKNESCLATRETSSTTRGSCLPPQKTSLMMTLCLGSIYEDLKMYQTEFQAINAALQNHNHQQIILDKGMLVAIDELMQSLNHNGETLRQKPPVGEADPYRVKMKLCILLHAFSTRVVTINRVMGYLSSA
chain 2: MWELEKDVYVVEVDWTPDAPGETVNLTCDTPEEDDITWTSDQRHGVIGSGKTLTITVKEFLDAGQYTCHKGGETLSHSHLLLHKKENGIWSTEILKNFKNKTFLKCEAPNYSGRFTCSWLVQRNMDLKFNIKSSSSSPDSRAVTCGMASLSAEKVTLDQRDYEKYSVSCQEDVTCPTAEETLPIELALEARQQNKYENYSTSFFIRDIIKPDPPKNLQMKPLKNSQVEVSWEYPDSWSTPHSYFSLKFFVRIQRKKEKMKETEEGCNQKGAFLVEKTSTEVQCKGGNVCVQAQDRYYNSSCSKWACVPCRVRS

binding result [4]: binds
binding result [5]: binds
B5: hIL-23A (p19), subunit of hIL-23 in the cryo-EM complex (natural protein, human, UniProt Q9NPF7 20-189, looked up)
chain: RAVPGGSSPAWTQCQQLSQKLCTLAWSAHPLVGHMDLREEGDEETTNDVPHIQCGDGCDPQGLRDNSQFCLQRIHQGLIFYEKLLGSDIFTGEPSLLPDSPVGQLHASLLGLSQLLQPEGHHWETQQIPSLSPSQPWQRLLLRFKILRSLQAFVAVAARVFAHGAATLSP

binding result [6]: binds
B6: hIL-23A (p19) of the crystallised hIL-23 (hIL-23a:hIL-12b co-transfection) (natural protein, human, UniProt Q9NPF7 20-189, looked up)
chain: RAVPGGSSPAWTQCQQLSQKLCTLAWSAHPLVGHMDLREEGDEETTNDVPHIQCGDGCDPQGLRDNSQFCLQRIHQGLIFYEKLLGSDIFTGEPSLLPDSPVGQLHASLLGLSQLLQPEGHHWETQQIPSLSPSQPWQRLLLRFKILRSLQAFVAVAARVFAHGAATLSP

binding result [2]: binds
binding result [7]: binds
B7: mIL-12A (p35), untagged subunit of mIL-12 in the cryo-EM complexes (natural protein, mouse, UniProt P43431 23-215, looked up)
chain: RVIPVSGPARCLSQSRNLLKTTDDMVKTAREKLKHYSCTAEDIDHEDITRDQTSTLKTCLPLELHKNESCLATRETSSTTRGSCLPPQKTSLMMTLCLGSIYEDLKMYQTEFQAINAALQNHNHQQIILDKGMLVAIDELMQSLNHNGETLRQKPPVGEADPYRVKMKLCILLHAFSTRVVTINRVMGYLSSA

binding result [8]: binds
B8: mIL-12A (p35) of the crystallised mIL-12 (mIL-12a-AviTag-His6, digested with Caspase-3) (natural protein, mouse, UniProt P43431 23-215, looked up)
chain: RVIPVSGPARCLSQSRNLLKTTDDMVKTAREKLKHYSCTAEDIDHEDITRDQTSTLKTCLPLELHKNESCLATRETSSTTRGSCLPPQKTSLMMTLCLGSIYEDLKMYQTEFQAINAALQNHNHQQIILDKGMLVAIDELMQSLNHNGETLRQKPPVGEADPYRVKMKLCILLHAFSTRVVTINRVMGYLSSA
